According to article PMC4822050, “Hemi-methylated DNA opens a closed conformation of UHRF1 to facilitate its histone recognition” (Nature Communications, 2016):

Tests used:
Assay in all cases: ITC; 0.05 mM protein in the cell, 0.5 mM protein or peptide in the syringe, iTC200, 18 °C, 10 mM HEPES pH 8.0, 100 mM NaCl
Conditions in all cases: both partners purified
[1] = target: T1, R295D/R296D mutant of full-length UHRF1 (human, UniProt Q96T88 1-793, R295D | R296D)
T1 construct: human UHRF1 (1–793)
T1 sequence (looked up): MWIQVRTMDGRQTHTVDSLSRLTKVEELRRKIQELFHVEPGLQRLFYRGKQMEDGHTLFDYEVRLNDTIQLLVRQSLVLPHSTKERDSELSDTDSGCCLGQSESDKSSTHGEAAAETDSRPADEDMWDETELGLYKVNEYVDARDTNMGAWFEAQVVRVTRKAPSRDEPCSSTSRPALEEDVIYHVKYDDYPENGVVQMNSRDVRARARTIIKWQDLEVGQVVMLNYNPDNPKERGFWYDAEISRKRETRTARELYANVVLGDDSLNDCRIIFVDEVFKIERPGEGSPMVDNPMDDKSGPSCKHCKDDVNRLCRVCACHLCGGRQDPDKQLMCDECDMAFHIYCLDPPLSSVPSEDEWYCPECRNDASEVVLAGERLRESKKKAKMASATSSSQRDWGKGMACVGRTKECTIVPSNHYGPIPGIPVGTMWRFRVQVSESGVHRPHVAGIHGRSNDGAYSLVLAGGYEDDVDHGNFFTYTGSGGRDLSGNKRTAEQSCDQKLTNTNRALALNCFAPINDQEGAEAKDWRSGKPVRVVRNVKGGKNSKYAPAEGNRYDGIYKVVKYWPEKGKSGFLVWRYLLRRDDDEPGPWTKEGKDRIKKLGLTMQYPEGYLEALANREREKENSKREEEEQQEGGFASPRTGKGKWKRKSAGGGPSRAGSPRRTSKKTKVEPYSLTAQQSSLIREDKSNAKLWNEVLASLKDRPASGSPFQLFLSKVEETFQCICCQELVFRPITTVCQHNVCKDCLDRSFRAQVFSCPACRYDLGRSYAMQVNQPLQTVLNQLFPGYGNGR

UHRF1^Δ627–674 = target: T2, UHRF1^Δ627–674 (human, UniProt Q96T88 1-793, Δ627–674)
T2 construct: also called spacer deletion mutant
T2 sequence (looked up): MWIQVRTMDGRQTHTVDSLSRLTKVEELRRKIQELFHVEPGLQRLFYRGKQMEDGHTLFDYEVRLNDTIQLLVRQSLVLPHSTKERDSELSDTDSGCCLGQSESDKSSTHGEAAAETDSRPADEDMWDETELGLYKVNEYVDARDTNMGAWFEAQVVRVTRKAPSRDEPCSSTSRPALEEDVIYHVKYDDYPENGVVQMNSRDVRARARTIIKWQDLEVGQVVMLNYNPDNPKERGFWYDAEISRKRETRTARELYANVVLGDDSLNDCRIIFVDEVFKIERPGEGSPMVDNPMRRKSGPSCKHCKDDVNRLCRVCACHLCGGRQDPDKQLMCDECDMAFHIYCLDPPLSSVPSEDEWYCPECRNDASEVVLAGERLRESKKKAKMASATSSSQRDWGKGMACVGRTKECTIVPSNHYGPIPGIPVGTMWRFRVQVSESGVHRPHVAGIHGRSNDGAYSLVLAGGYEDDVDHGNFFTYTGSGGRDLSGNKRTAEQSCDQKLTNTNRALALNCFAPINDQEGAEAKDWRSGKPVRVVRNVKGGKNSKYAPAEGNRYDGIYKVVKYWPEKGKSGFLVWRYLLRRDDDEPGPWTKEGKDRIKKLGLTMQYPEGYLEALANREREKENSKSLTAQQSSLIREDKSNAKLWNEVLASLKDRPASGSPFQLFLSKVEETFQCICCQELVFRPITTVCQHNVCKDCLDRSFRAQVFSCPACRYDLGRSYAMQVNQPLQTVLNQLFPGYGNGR

UHRF1^D334A&Δ627–674 = target: T3, UHRF1^D334A&Δ627–674 (human, UniProt Q96T88 1-793, D334A | Δ627–674)
T3 construct: human UHRF1 (1–793)
T3 sequence (looked up): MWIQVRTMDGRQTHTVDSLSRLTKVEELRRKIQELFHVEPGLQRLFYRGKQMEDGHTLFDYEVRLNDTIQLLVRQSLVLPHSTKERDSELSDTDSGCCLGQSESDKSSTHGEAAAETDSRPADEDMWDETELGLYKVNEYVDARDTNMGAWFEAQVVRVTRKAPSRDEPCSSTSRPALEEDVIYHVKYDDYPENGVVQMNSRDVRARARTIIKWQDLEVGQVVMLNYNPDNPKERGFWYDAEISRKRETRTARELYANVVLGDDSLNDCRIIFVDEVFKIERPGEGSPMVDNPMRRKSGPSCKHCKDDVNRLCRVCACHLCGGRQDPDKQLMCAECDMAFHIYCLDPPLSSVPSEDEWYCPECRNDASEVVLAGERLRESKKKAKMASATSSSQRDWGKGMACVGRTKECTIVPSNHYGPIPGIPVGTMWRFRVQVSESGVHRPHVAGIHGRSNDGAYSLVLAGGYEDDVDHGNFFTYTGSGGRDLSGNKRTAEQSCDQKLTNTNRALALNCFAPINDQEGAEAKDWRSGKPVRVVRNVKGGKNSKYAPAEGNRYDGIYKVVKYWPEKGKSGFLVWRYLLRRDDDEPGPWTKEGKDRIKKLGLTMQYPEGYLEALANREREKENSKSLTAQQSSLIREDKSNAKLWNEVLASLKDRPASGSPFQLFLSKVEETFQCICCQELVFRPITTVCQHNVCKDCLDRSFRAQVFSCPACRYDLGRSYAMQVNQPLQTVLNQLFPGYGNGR

ARTKQTARKSTGGKAPR (peptide, UniProt P68431 2-18, looked up, trimethyl-lysine at K9, histone H3, residues 1–17) [H3K9me3 peptide (1–17)]
fold lower binding affinity than wild type [1]: 8 fold | fold increase in binding affinity against full-length UHRF1 (UHRF1^Δ627–674): 4 fold | Kd (UHRF1^D334A&Δ627–674): 8.69 µM
